Measurements: the supplement of paper PMC10567573

B1: ATL3 (parent)
chain: QELEEEIKELYENFCKHNGSKNVF
B2: PTPRD (parent)
chain: ITWFKDFLPVDTSNNNGRIKQLRS

Variants of: B1
Experiment: protein stability index of a GFP-peptide fusion (GPS, HEK-293T) (PSI 1-6); higher = more stable
Conditions: c terminus: a fixed tail appended
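Note: lentivirally expressed fusions sorted by FACS into six bins by GFP to DsRed ratio, PSI derived from sequencing read proportions per bin multiplied by bin number.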

Protein stability index of substitutions, site by site:
K16: S 2.99, Y 2.49, R 2.73, N 2.36, W 2.91, P 3.88, V 3.15, Q 3.11, M 2.79, T 3.03
H17: A 2.52, D 2.69, P 3.34, C 2.65, M 2.96, W 2.46, G 2.75, F 3.2, K 2.67, I 2.94, E 2.51, L 2.99, S 2.62, V 2.72, T 2.63, Y 2.42, R 2.6, Q 2.44, N 2.51
S20: P 3.46, H 2.59, G 2.48, A 2.66, Y 2.29, C 2.28, Q 2.45, E 2.04, R 3.77, N 2.48, F 2, D 1.97, I 2.54, T 2.7, V 2.93, L 2.41, K 3.17, W 2.16, M 2.24
N22: V 2.62, Q 2.98, P 3.25, R 3.3, I 2.48, Y 2.05, M 2.8, H 2.3, A 2.96, K 3.17, S 2.96, C 2.34, L 2.57, T 2.16, W 1.48, D 1.91, F 2.59, E 2.38, G 2.28
N18: I 2.04, M 2.69, H 2.94, E 2.36, C 2.75, Y 2.37, Q 2.68, F 2.3, L 3.23, G 2.34, V 2.58, S 2.42, P 2.72, A 2.24, D 2.28, W 2.85, R 2.86, T 2.6, K 2.55
G19: S 3.18, K 2.4, V 2.35, Q 2.73, L 2.55, C 2.31, R 2.54, E 2.11, N 2.69, I 2.99, T 2.25, D 2.46, A 2.59, H 2.87, F 2.65, P 3.03, Y 2.85, W 1.91, M 2.46
F24: H 3.37, P 2.74, G 2.73, Q 2.93, M 3.06, C 3.17, A 3.45, L 2.56, N 3.07, Y 2.65, W 2.46, T 3.11, S 3.28, D 2.38, R 3.24, E 2.9, I 2.48, V 3.01
V23: E 3.07, C 2.27, Y 1.94, S 2.38, W 2.85, P 2.61, H 3.56, M 3.24, Q 2.68, N 3.06, A 2.73, L 2.68, R 3.44, G 2.94, F 2.22, I 2.62, D 2.16, T 2.49, K 2.89
K21: D 2.11, S 1.57, W 1.81, Y 1.55, F 1.65, R 2.12, G 2.49, C 2.1, M 1.85, P 2.37, N 2.42, Q 2.55, T 2.08, H 2.16, V 1.82, L 2.15, I 2.12, A 2.25, E 1.96

Variants of: B2
Experiment: as above
Conditions: c terminus: a fixed tail appended

Protein stability index of substitutions, site by site:
D6: K 1.85, N 1.94, T 1.6, A 1.78, Q 1.4, P 1.85, F 3.07, G 2.27, C 2.26, M 2.14, V 2.3, S 2.27, L 3.08, Y 2.85, W 2.26, R 2.37, H 1.9, E 2.36, I 3.07
W3: R 3.1, Y 2.95, Q 3.13, L 2.31, H 3.33, E 4.07, N 3.23, K 2.85, A 3.76, T 3.3, V 2.46, D 3.43, M 2.95, I 1.93, S 3.62, C 2.82, G 3.03, F 2.25, P 3.75
F7: M 2.46, P 2.32, Q 2.05, Y 1.99, L 2.41, D 2.74, V 1.85, S 2.36, G 2.25, R 1.8, K 1.88, C 2.31, W 1.82, A 2.45, I 2.26, N 2.47, E 2.45, H 2.76, T 2.38
V10: C 2.05, A 2.03
I1: T 3.02, K 2.99, D 3.88, E 3.66, V 2.15, G 3.39, A 3.26, R 3.03, P 3.97, N 3.69, S 3.17, Y 1.92, Q 2.71, M 2.62, F 2.03, C 1.9, H 3.47, W 2.17, L 2.33
K5: Q 2.07, M 2.43, D 2.44, W 1.66, S 2.37, E 2.91, T 2.1, F 1.97, N 2.12, H 2.06, P 2.24, V 1.51, Y 2.75, L 2.08, I 2.19, R 1.79, C 2.25, A 1.98, G 2.17
L8: W 1.76, C 1.81, D 2.31, Q 1.78, K 2.28, I 2.32, N 2.1, S 2.04, P 1.96, T 2.23, Y 1.64, E 1.85, G 2, V 1.77, M 1.49, H 1.93, R 2.41, A 2.14, F 1.88
T2: N 2, E 2.33, V 1.86, R 1.59, W 2.21, S 2.12, P 3, Y 1.68, I 2.18, L 1.41, G 2.78, D 1.53, A 2.34, H 2.15, M 1.96, K 2.03, C 2.09, F 2.41, Q 1.84
P9: R 1.43, A 2, K 1.96, E 2, L 2.84, F 1.93, N 2.28, I 2.02, D 2.09, S 2.13, G 1.72, T 1.42, W 1.75, M 2.31, C 1.58, Y 1.66, H 1.45, V 2.04, Q 2.12
F4: H 2.27, L 1.87, S 1.57, N 2.57, R 2.49, K 2.37, W 2.02, V 1.87, E 3.97, A 2.17, G 3.35, I 1.62, Q 2.21, P 2.74, T 2.03, Y 1.95, D 3.25, M 1.59, C 1.94
